Consider one molecule from article PMC8660799, “Cryo-EM reveals unique structural features of the FhuCDB Escherichia coli ferrichrome importer” (Communications Biology, 2021).

The target in assay [1] is T1, FhuCB with FhuB Q507A, T510A (Escherichia coli, UniProt P07821 1-265; P06972 1-660, Q507A | T510A, red-tris-NTA 2nd generation dye on the His-tag).
T1 construct: FhuC, ATPase subunit, Escherichia coli; as in Dm2; FhuB, membrane subunit, Escherichia coli, 660 residues; Mutant made on the FhuCB-pET15b construct by direct mutagenesis; also called Q507T510; source: E. coli BL21(DE3) C43, purified (TALON, Superose 6 gel filtration) in LMNG; not shown: His-tag, N-terminal, kept; copies: 2 + 1
T1 sequence (looked up) 1: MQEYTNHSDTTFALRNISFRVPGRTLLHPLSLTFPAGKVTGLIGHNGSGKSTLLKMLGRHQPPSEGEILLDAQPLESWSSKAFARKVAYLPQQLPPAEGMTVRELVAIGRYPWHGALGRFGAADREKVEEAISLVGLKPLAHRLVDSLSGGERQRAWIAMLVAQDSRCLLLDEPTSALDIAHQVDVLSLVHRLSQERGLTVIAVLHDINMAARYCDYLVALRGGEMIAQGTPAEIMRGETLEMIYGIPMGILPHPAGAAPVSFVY
T1 sequence (looked up) 2: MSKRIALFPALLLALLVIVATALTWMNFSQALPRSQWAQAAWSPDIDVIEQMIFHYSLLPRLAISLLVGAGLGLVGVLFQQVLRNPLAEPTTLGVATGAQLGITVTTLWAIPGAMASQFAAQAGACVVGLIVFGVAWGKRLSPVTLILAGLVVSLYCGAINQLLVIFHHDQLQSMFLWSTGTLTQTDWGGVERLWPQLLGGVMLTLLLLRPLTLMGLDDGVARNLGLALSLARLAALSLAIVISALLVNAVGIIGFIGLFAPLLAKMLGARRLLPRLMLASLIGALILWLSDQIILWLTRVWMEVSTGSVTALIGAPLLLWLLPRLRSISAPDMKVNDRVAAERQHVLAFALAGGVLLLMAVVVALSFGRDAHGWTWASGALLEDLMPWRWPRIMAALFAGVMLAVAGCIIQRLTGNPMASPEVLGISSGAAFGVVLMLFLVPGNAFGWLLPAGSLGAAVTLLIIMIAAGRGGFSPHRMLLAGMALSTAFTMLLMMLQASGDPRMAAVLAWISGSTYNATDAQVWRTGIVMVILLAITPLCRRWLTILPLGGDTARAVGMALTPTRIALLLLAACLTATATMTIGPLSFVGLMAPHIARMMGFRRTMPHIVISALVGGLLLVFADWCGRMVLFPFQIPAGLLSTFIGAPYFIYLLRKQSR
The assay is described as follows: MST; 40 nM FhuCB (wild type or FhuB mutant) in detergent, His-tag labelled with red-tris-NTA 2nd generation dye; serial dilution of 1.6 μM FhuD with substrate ferrichrome; with ATP-Mg; Monolith NT.115pico, 20% LED power, medium MST power. As to conditions: both partners purified.

In a further assay the target is T2, FhuCB with FhuB E304A (Escherichia coli, UniProt P07821 1-265; P06972 1-660, E304A, red-tris-NTA 2nd generation dye on the His-tag).
T2 construct: FhuC, ATPase subunit, Escherichia coli; as in Dm2; FhuB, membrane subunit, Escherichia coli, 660 residues; Mutant made on the FhuCB-pET15b construct by direct mutagenesis; source: E. coli BL21(DE3) C43, purified (TALON, Superose 6 gel filtration) in LMNG; not shown: His-tag, N-terminal, kept; copies: 2 + 1
T2 sequence (looked up) 1: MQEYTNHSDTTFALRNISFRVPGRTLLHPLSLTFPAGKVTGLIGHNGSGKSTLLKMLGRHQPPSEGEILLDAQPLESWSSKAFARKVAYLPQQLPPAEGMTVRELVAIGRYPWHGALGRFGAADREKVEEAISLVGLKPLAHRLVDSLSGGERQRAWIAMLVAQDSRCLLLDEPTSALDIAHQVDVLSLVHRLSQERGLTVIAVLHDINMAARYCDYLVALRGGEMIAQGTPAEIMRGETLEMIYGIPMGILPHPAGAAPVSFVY
T2 sequence (looked up) 2: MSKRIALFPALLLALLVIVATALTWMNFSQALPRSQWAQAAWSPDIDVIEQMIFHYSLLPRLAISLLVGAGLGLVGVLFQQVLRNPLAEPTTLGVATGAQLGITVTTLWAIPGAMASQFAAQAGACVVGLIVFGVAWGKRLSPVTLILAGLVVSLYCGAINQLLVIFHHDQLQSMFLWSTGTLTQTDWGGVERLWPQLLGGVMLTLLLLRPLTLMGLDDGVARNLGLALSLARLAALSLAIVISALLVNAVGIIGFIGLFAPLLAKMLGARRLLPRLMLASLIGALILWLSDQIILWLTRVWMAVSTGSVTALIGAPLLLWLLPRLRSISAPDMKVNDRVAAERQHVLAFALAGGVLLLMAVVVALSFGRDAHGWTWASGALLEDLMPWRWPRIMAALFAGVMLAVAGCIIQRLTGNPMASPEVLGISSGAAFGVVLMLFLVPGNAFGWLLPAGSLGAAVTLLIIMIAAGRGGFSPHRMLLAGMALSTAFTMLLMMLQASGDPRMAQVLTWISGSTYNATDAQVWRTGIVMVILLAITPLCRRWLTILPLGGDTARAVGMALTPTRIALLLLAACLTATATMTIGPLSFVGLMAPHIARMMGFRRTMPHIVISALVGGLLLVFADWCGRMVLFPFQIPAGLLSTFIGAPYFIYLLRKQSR
Described as above. Conditions: both partners purified.

B1: FhuD (natural protein, Escherichia coli)
chain: AAIDPNRIVALEWLPVELLLALGIVPYGVADTINYRLWVSEPPLPDSVIDVGLRTEPNLELLTEMKPSFMVWSAGYGPSPEMLARIAPGRGFNFSDGKQPLAMARKSLTEMADLLNLQSAAETHLAQYEDFIRSMKPRFVKRGARPLLLTTLIDPRHMLVFGPNSLFQEILDEYGIPNAWQGETNFWGSTAVSIDRLAAYKDVDVLCFDHDNSKDMDALMATPLWQAMPFVRAGRFQRVPAVWFYGATLSAMHFVRVLDNAIGGKA
notes: In 'FhuD-ferrichrome' the protein was loaded with the small molecule ferrichrome; also called FhuD-ferrichrome (when loaded with ferrichrome)
For B1, the results for the equilibrium dissociation constant (Kd) (in assay [1]; with FhuCB with FhuB E304A) were 79.2 nM and 15.1 nM, respectively.
